According to publication PMC8479633:

Key:
[1] = target: wild type full-length SMAD2 (S2FLWT), Q15796; assay: SAXS with ensemble optimisation; details: remark: other sources report otherwise
[2] = target: wild type full-length SMAD2 (S2FLWT), Q15796; assay: SAXS with ensemble optimisation; details: remark: other sources report otherwise; remark: listed apart in the source

B1: wild type full-length SMAD2 (S2FLWT), Q15796 1-467 (natural protein)
chain: MSSILPFTPPVVKRLLGWKKSAGGSGGAGGGEQNGQEEKWCEKAVKSLVKKLKKTGRLDELEKAITTQNCNTKCVTIPSTCSEIWGLSTPNTIDQWDTTGLYSFSEQTRSLDGRLQVSHRKGLPHVIYCRLWRWPDLHSHHELKAIENCEYAFNLKKDEVCVNPYHYQRVETPVLPPVLVPRHTEILTELPPLDDYTHSIPENTNFPAGIEPQSNYIPETPPPGYISEDGETSDQQLNQSMDTGSPAELSPTTLSPVNHSLDLQPVTYSEPAFWCSIAYYELNQRVGETFHASQPSLTVDGFTDPSNSERFCLGLLSNVNRNATVEMTRRHIGRGVRLYYIGGEVFAECLSDSAIFVQSPNCNQRYGWHPATVCKIPPGCNLKIFNNQEFAALLAQSVNQGFEAVYQLTRMCTIRMSFVKGWGAEYRRQTVTSTPCWIELHLNGPLQWLDKVLTQMGSPSVRCSSMS
percent of the population as dimer [1]: 18%
percent of the population as trimer [1]: 1%
percent of the population as trimer [2]: 16.4%
